Assay results: patent US20220332804A1 (CSL INNOVATION, published 2022)
Substitutions are numbered along the chain they refer to.

Legend:
Assay in all cases: SPR, mAb captured, C2 mutant analyte;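 further: Anti-C2 mAbs captured on goat anti-human IgG Biacore CM5 chips, alanine or serine C2 surface mutants flowed over at 37 °C, double-referenced sensorgrams fitted to a 1:1 binding model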
[1] = biological target: T1, human C2 N467A (human, UniProt P06681 21-752)
T1 sequence: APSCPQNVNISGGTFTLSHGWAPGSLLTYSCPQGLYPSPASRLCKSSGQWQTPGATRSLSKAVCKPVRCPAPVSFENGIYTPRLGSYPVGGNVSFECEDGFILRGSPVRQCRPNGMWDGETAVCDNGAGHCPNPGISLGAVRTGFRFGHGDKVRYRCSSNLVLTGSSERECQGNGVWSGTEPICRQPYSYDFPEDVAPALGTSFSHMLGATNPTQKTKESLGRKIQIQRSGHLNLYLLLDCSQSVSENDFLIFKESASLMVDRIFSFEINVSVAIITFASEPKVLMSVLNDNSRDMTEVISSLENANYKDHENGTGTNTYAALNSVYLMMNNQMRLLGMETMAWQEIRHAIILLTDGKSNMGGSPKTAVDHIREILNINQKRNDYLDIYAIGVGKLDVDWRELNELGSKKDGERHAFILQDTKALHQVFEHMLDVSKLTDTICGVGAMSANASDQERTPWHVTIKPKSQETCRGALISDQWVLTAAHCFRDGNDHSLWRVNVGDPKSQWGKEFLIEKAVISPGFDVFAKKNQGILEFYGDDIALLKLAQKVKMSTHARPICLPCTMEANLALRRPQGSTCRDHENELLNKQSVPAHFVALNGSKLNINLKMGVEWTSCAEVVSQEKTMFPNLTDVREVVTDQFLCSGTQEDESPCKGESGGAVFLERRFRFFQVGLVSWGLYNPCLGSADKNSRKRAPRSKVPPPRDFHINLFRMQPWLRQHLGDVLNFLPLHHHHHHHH

[2] = biological target: T2, human C2 A326S (human, UniProt P06681 21-752)
T2 sequence: T1 sequence with A306S, A447N

[3] = biological target: T3, human C2 S473A (human, UniProt P06681 21-752)
T3 sequence: T1 sequence with A447N, S453A

[4] = biological target: T4, human C2 L620A (human, UniProt P06681 21-752)
T4 sequence: T1 sequence with A447N, L600A

- Kd [1]: 77.2 nM
- Kd [2]: 45.5 nM
- Kd [3]: 68.7 nM
- Kd [4]: 30.8 nM
B1: RF16-214 (antibody, V domains shown)
VH: EVQLLESGGGLVQPGGSLRLSCAASGFTFSWYQMMWVRQAPGKGLEWVSRIYPSGGGTAYADSVKGRFTISRDNSKNTLYLQMNSLRAEDTAVYYCARDAGYGDNWGQGTLVTVSS
VL: QSALTQPPSVSVSPGQTASITCSGDKLGEKYASWYQQKAGQSPVMVIYQDRKRPSGIPERFSGSNSGNTATLTISGTQAMDEADYYCQAWDTRAVVFGGGTKLTVLG
